# Results taken from patent publication US20230295310A1 (ABCELLERA BIOLOGICS, published 2023).
# Changes are numbered by the printed parent chain.
# B1: mAb 182 (antibody, V domains shown)
# VH: QVQLVQSGAGMKKPGASVRVSCKASGYNFIDYHIHWVRQAPGQGLEWMGWINPKSGRTMSAQKFQGRVTMTRDTSITAAYMELNRLRSDDSAIYYCARVTQLVFDHWGQGTLVTVSL
# VL: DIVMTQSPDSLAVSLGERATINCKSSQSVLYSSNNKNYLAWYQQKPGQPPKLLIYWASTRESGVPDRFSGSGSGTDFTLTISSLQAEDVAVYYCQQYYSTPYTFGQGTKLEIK
# notes: VH/VL only
# B2: mAb 183 (antibody, V domains shown)
# VH: QVQLVQSGAEVKKPGASVRVSCKSSGYTFTGYYIHWVRQAPGQGLEWMGWINPKSGRTSYAEKFQGSITMTRDTSINTAYMELTKLRSDDTAVYYCERMGELLLFDYWGQGTLVTVSS
# VL: not shown
# notes: VH/VL only
# B3: mAb 181 (antibody, V domains shown)
# VH: QVQLVQSGADMKKPGASVKVSCKASGYTFTDYHIHWVRQAPGQGLEWMGWINPKSGRTMFAQNFQDRVTMTRDTSISTAYMELNRLRSDDSAVYYCARVTQLVFDHWGQGTLVTVSF
# VL: AIQMTQSPSSLSASVGDRVTITCRASQGIRNDLGWYQQKPGKAPKLLIYAASSLQSGVPSRFSGSGSGTDFTLTISSLQPEDFATYYCLQDYNYMYTFGQGTKLEIK
# notes: VH/VL only
# B4: mAb 147 (antibody, V domains shown)
# VH: QVQLVQSGAEVKKPGASVKVSCKASGYTFTAYHTHWVRQAPGQGLEWMGWIYPKSGRTTYTQKFQGRVTMTRDTSISTVYMELSRLKSDDTAVYYCARVGALLFDYWGQGTLVTVSS
# VL: not shown
# B5: mAb 151 (antibody, V domains shown)
# VH: B4 VH
# VL: DIQMTQSPSSLSASVGDRVTITCRASQGIRNDLGWYQQKPGKAPKCLIYAASNLQSGVPSRFSGSGSGTEFTLTISSLQPEDFATYYCLQHNSYPRTFGQGTKVDVK
# B6: mAb 148 (antibody, V domains shown)
# VH: B4 VH
# VL: EIVLTQSPATLSLSPGERATLSCRASQSVSSYLAWYQQKPGQAPRLLIYDASNRATGIPARFSGSGSGTDFTLTISSLEPEDFAVYYCQQRSNWPFTFGPGTKVDIK
# B7: mAb 149 (antibody, V domains shown)
# VH: B4 VH
# VL: not shown
# B8: mAb 150 (antibody, V domains shown)
# VH: B4 VH
# VL: B6 VL with F96L, P100G, D105E
# B9: mAb 107 (antibody, V domains shown)
# VH: QVQLQESGPGLVKPSETLSLTCTVSGGSISSYCWSWIRQPPGKGLEWIGYIYNIGSTNFNPSLKSRVTISVDTSKNQFSLKLNSVTAADTAVYYCARGGLYSGNGGRFDPWGRGTLVTVSS
# VL: EIVLTQSPGTLSLSPGQTATLSCRASQGVRSNYLAWYQQKPGQAPRLLIYGASSRATGIPVRFSGSGSGTGFTLTMSRLEPEDFAVYYCQQYGSSPWTFGQGSKVEIK
# B10: mAb 168 (antibody, V domains shown)
# VH: EVQLVQSGAEVKKPGESLKISCKGSGYIFTSYWIGWVRQMPGKGLEWMGIIYPGDSDTRYSPSFQGQVTISADKSISTAYLQWSSLKASDTAMYYCARRNYYYYMDVWGKGTTVTVSS
# VL: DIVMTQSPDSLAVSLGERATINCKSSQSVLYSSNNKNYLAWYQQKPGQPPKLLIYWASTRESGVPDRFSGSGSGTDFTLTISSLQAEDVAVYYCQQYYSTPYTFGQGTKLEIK
# B11: mAb 124 (antibody, V domains shown)
# VH: EVQVVESGGDLVQPGGSLRLSCAASGFTFSTYAMTWVRQAPGKGLEWISTISGSGHNTYYADSVKGRFTISRGNSKNTLFLQMNSLRAEDTAVYYCAKENCGGDCLYYMDVWGKGTTVTVSS
# VL: DIQMTQSPSSLSASVGDRVTITCRASQSISNYLNWYQQKSGKAPKLLIYFASSLQSGVPSRFGGSGAGTDFTLTISSLQPEDFATYSCQQSYSTPLTFGGGTKVEIK
# B12: mAb 105 (antibody, V domains shown)
# VH: QVQLQESGPGLVKPSATLSLTCTVSGGSISTYYWSWIRQSPGKGLEWIGYISYSVNTNPSLKSRVTISVDKSKNQLSLNLRSATGADTAVYYCARGGLYGGNAGRFDLWGQGTLVTVSS
# VL: EIVLTQSPGTLSLSPGERATLSCRASQSVINNYVAWYQQKPGQAPSLIITGVSRRATGIPDRFIGSGSGTDFILIISRLEPEDFAVYCCQQYGNSPWTFGQGTRVEIK
# B13: mAb 139 (antibody, V domains shown)
# VH: QVQLVESGGGVVQPGRSLRLSCAASGFTFSSYAMHWVRQAPGKGLEWVAVIWFDGTNKYYTDSVRGRFTISRDNSKNTLYLQMNSLRAEDTAVYYCATERGITETTRGFDYWGQGTLVTVSS
# VL: DIQMTQSPSSLSASVGDRVTITCRTSQGIGNDLDWYQQNPGKAPKRLIYATSNLQSGVPSRFSGSGSGTEFTLTISGLQPEDFTTYYCLRHNSYPYTFGQGTKLEIT
# B14: mAb 103 (antibody, V domains shown)
# VH: QVQLVQSGAEVMKPGASVKVSCKASGYTFTDFYIHWVRQAPGQGLEWMGWINPKSGNTRFAQKFQGRVTMTRDTSIATSYMELSRLRSDDTAVFYCARMGDLLALDYWGQGTLVTVSS
# VL: EIVLTQSPATLSLSPGERATLSCRASQSVSSYLAWYQQKPGQAPRLLIYDASNRATGIPARFSGSGSGTDFTLTISSLEPEDFAVYYCQQRSNWYTFGQGTKLEIK
# B15: mAb 104 (antibody, V domains shown)
# VH: B14 VH with M12K, K63R, A77T
# VL: not shown
# B16: mAb 108 (antibody, V domains shown)
# VH: QVQLVESGGGVVQPGRSLRLSCAASGFTFSSYGMHWVRQAPGKGLEWVAVIWYDGSNKYYEDSVKGRFTISRDNSKNTLHLQMNSLRVEDTAVYYCARGLEFDYWGQGTLVTVSS
# VL: DIVMTQTPLSSPVTLGQPASISCRSSQSLVHSDGITYLNWLQQRPGQPPRLLIYKISNRFSGVPDRFSGSGSGTDFTLKISRVEAEDVGVYYCMQATQFPWTFGQGTKVEIK
# B17: mAb 135 (antibody, V domains shown)
# VH: EVQLVESGGGLVKTGGSLRLSCVASGFSFKKAWMNWVRQAPGKGLEWVGRIKRNSDGGTTDYAAPVKGRFTLSRDDSKNTLYLQMNSLKTEDTAVYYCTTLDSSSWYVGYYYMDVWGKGTTVTVSS
# VL: not shown
# B18: mAb 138 (antibody, V domains shown)
# VH: QVLLVQSGPEVKKPGASVKVSCKASGYTFTDYYLHWVRQAPGQGLDWMGWINPKSGGTRNAQKFQGRVTMTRDTSISTAYMDLTRLRSDDTAVYYCARVGGELLFDYWGQGTLVTVSS
# VL: DIVMTQSPLSLSVTPGEPASISCRSSQSLLHSDGYNYLDWFLQKPGQSPHLLIFLGSNRASGVPDRFSGSGSGTDFTLKISRVEAEDVGIYYCMQALQTPLTFGGGTKVEIK
# Biological target: T1, human CD3 expressed on cells (Jurkat cells; human primary T cells) (human, UniProt P07766 23-207; P04234 22-171; P09693 23-182)
# T1 construct: whole, on cells
# Assay: flow cytometry, Jurkat cells
# Method: (§1) Purified antibodies were confirmed to bind CD3 expressed on cells using the CytoFLEX S or LX flow cytometers (Beckman Coulter). Antibodies were diluted to 25 nM in FACS buffer (PBS+2% FBS) and were incubated with CD3-expressing cells for 30 minutes at 4° C. […] The median fluorescence intensity of the binding signal for each antibody was normalized to the isotype control to obtain a fold over isotype value. An antibody with a fold over isotype (FOI) of ≥10 was considered to be positive for binding.
# T1 sequence (P07766 23-207, chain 1 of 3): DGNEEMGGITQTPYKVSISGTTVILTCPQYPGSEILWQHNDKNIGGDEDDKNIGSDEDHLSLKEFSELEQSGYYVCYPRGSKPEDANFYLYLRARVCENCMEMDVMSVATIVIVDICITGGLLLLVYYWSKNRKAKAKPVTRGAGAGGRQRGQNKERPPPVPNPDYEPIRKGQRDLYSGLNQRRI
# T1 sequence (P04234 22-171, chain 2 of 3): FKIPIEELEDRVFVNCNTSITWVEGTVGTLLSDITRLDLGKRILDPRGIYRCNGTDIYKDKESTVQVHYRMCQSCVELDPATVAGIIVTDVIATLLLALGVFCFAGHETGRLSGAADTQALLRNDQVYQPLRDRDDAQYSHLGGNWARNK
# T1 sequence (P09693 23-182, chain 3 of 3): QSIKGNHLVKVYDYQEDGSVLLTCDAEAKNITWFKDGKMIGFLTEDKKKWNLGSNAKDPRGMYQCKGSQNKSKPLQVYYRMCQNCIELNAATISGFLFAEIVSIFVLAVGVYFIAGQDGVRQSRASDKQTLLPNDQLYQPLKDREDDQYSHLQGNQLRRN
row,Binder,binding result
1,B1,no binding (tested: FOI <10 (FOI >=10 = positive); 25 nM)
2,B2,no binding (tested: FOI <10 (FOI >=10 = positive); 25 nM)
3,B3,no binding (tested: FOI <10 (FOI >=10 = positive); 25 nM)

# Biological target: T2, cynomolgus monkey CD3 expressed on cyno primary T cells (cynomolgus monkey, UniProt Q95LI5 22-198; Q95LI8 22-171; Q95LI7 23-181)
# T2 construct: whole, on cells; CD3 complex on purified cynomolgus monkey CD3 pan T cells; also called cyno CD3
# Assay: flow cytometry, cyno primary T cells
# In short: (§2)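 25 nM Ab in FACS buffer (PBS+2% FBS), 30 min at 4° C on CD3+ cells; flow cytometry MFI normalized to isotype = FOI; cutoff ≥10 for positive.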
# T2 sequence (Q95LI5 22-198, chain 1 of 3): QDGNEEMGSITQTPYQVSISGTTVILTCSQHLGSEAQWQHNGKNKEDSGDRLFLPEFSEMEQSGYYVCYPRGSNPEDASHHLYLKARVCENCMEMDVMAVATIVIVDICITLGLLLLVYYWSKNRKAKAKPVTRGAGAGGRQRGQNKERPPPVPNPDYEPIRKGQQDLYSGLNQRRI
# T2 sequence (Q95LI8 22-171, chain 2 of 3): as the sequence (P04234 22-171, chain 2 of 3) above, with I5V, N15K, I20V, S32T, D33N, I34N, T64A, S74N, V83L, H141R counted along it
# T2 sequence (Q95LI7 23-181, chain 3 of 3): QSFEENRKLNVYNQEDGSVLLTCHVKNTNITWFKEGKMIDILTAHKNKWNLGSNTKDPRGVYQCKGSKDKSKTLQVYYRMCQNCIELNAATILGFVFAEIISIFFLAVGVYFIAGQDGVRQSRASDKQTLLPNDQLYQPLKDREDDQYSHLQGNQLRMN
row,Binder,binding result
1,B1,no binding (tested: FOI <10 (FOI >=10 = positive); 25 nM)
2,B2,no binding (tested: FOI <10 (FOI >=10 = positive); 25 nM)
3,B3,no binding (tested: FOI <10 (FOI >=10 = positive); 25 nM)

# Biological target: T3, human CD3 expressed on cells (human, UniProt P07766 23-207; P04234 22-171; P09693 23-182)
# T3 construct: whole, on cells; CD3 complex on Jurkat cells and on human primary T cells
# Assay: flow cytometry, 25 nM, Jurkat cells (human primary T cells in c4 also <10)
# Method: as §1
# T3 sequence (P07766 23-207, chain 1 of 3): as the sequence (P07766 23-207, chain 1 of 3) above
# T3 sequence (P04234 22-171, chain 2 of 3): as the sequence (P04234 22-171, chain 2 of 3) above
# T3 sequence (P09693 23-182, chain 3 of 3): as the sequence (P09693 23-182, chain 3 of 3) above
row,Binder,binding result
1,B4,no binding (tested: FOI >=10 = positive)
2,B5,no binding (tested: FOI >=10 = positive)
3,B6,no binding (tested: FOI >=10 = positive)
4,B7,no binding (tested: FOI >=10 = positive)
5,B8,no binding (tested: FOI >=10 = positive)
6,B9,no binding (tested: FOI >=10 = positive)
7,B10,no binding (tested: FOI >=10 = positive)
8,B11,no binding (tested: FOI >=10 = positive)
9,B12,no binding (tested: FOI >=10 = positive)
10,B13,no binding (tested: FOI >=10 = positive)
11,B14,no binding (tested: FOI >=10 = positive)
12,B15,no binding (tested: FOI >=10 = positive)
13,B16,no binding (tested: FOI >=10 = positive)
14,B17,no binding (tested: FOI >=10 = positive)
15,B18,no binding (tested: FOI >=10 = positive)

# Biological target: T3, human CD3 expressed on cells
# Assay: flow cytometry, 25 nM
# In short: as §2
row,Binder,Human primary T Cell Binding (FOI)
1,B4,1.58 FOI
2,B5,1.36 FOI
3,B6,1.44 FOI
4,B7,1.45 FOI
5,B8,1.68 FOI
6,B9,0.743 FOI
7,B10,1.48 FOI
8,B11,0.835 FOI
9,B12,0.842 FOI
10,B13,0.678 FOI
11,B14,0.526 FOI
12,B15,0.778 FOI
13,B16,0.772 FOI
14,B17,0.821 FOI
15,B18,0.796 FOI

# Biological target: T4, cynomolgus monkey CD3 expressed on primary T cells (cynomolgus monkey, UniProt Q95LI5 22-198; Q95LI8 22-171; Q95LI7 23-181)
# T4 construct: whole, on cells; CD3 complex on purified cynomolgus monkey T cells; also called cyno CD3
# Assay: flow cytometry, 25 nM, cyno primary T cells
# In short: as §2
# T4 sequence (Q95LI5 22-198, chain 1 of 3): as the sequence (Q95LI5 22-198, chain 1 of 3) above
# T4 sequence (Q95LI8 22-171, chain 2 of 3): as the sequence (P04234 22-171, chain 2 of 3) above, with I5V, N15K, I20V, S32T, D33N, I34N, T64A, S74N, V83L, H141R counted along it
# T4 sequence (Q95LI7 23-181, chain 3 of 3): as the sequence (Q95LI7 23-181, chain 3 of 3) above
row,Binder,binding result
1,B4,no binding (tested: FOI >=10 = positive)
2,B5,no binding (tested: FOI >=10 = positive)
3,B6,no binding (tested: FOI >=10 = positive)
4,B7,no binding (tested: FOI >=10 = positive)
5,B8,no binding (tested: FOI >=10 = positive)
6,B9,no binding (tested: FOI >=10 = positive)
7,B10,no binding (tested: FOI >=10 = positive)
8,B11,no binding (tested: FOI >=10 = positive)
9,B12,no binding (tested: FOI >=10 = positive)
10,B13,no binding (tested: FOI >=10 = positive)
11,B14,no binding (tested: FOI >=10 = positive)
12,B15,no binding (tested: FOI >=10 = positive)
13,B16,no binding (tested: FOI >=10 = positive)
14,B17,no binding (tested: FOI >=10 = positive)
15,B18,no binding (tested: FOI >=10 = positive)
